B1: mNeonGreen-tagged T-bet DNA binding domain (aa 135-326), wild type [mouse] / mTagBFP-tagged GATA3 DNA binding domain (aa 259-369) [not stated] (parent complex)
chain 1: KLRVALSNHLLWSKFNQHQTEMIITKQGRRMFPFLSFTVAGLEPTSHYRMFVDVVLVDQHHWRYQSGKWVQCGKAEGSMPGNRLYVHPDSPNTGAHWMRQEVSFGKLKLTNNKGASNNVTQMIVLQSLHKYQPRLHIVEVNDGEPEAACSASNTHVFTFQETQFIAVTAYQNAEITQLKIDNNPFAKGFREN
chain 2: not shown

Variants of: B1
Assay: flow-cytometric FRET; HEK293T cells; parent: 0.036; read off a plot

| Variant | response [DFRET] |
| --- | --- |
| chain 1 Q126A | ~0.031 |
| chain 1 R190W | ~-0.001 |
| chain 1 K113L | ~0.041 |
| chain 1 E76A | ~0.043 |
| chain 1 I123E | ~-0.001 |

Results, then the variant that gave them:

| response [DFRET] | Variant |
| --- | --- |
| ~0.018 | chain 1 K26A |
| ~0.025 | chain 1 V124W |
| ~-0.004 | chain 1 R29A, chain 1 R30A |
